The source of these data is paper PMC12772356.

Data set [1] relates to ThHSF1 DBD (Trametes hirsuta AH28-2). Description: FP. Particulars: 5x binding buffer pH 6.8 (25 mM HEPES, 5 mM MgCl2, 150 mM KCl, 1 mM DTT, 5% glycerol), EMSA 100 nM probe, 16 C 30 min, then 37 C 30 min, 6% native PAGE. (A gel shift assay detects complexes by their altered migration in electrophoresis.)
The target of data set [2] is ThHSF1, heat shock transcription factor of Trametes hirsuta AH28-2 (full-length protein) (Trametes hirsuta AH28-2). Put plainly: ITC. The following applies: natural protein.
Data set [3] concerns ThHSF1 full-length (Trametes hirsuta AH28-2). Description: FP. Particulars: without ThHspA1, 5x binding buffer pH 6.8 (25 mM HEPES, 5 mM MgCl2, 150 mM KCl, 1 mM DTT, 5% glycerol), EMSA 100 nM probe, 16 C 30 min, then 37 C 30 min, 6% native PAGE.
Data set [4] has as its target ThHSF1 full-length;ThHspA1 full-length (Trametes hirsuta AH28-2;Trametes hirsuta AH28-2) (UniProt A0AAD7TN48). Put plainly: FP. The following applies: ThHspA1 added, 5x binding buffer pH 6.8 (25 mM HEPES, 5 mM MgCl2, 150 mM KCl, 1 mM DTT, 5% glycerol), EMSA 100 nM probe, 16 C 30 min, then 37 C 30 min, 6% native PAGE.
Data set [5] has as its target ThHSF1, heat shock transcription factor of Trametes hirsuta AH28-2 (full-length protein) (Trametes hirsuta AH28-2). Put plainly: ITC; iTC200, 25°C; 50 mM Tris, 500 mM NaCl, pH 7.5; 5 µM ThHspA1 titrated against 1 µM ThHSF1. In general terms: ITC needs no label: the signal is the heat of the interaction.
The target in data set [6] is ThHspA1, Hsp70 homolog of Trametes hirsuta AH28-2 (full-length protein) (Trametes hirsuta AH28-2). Put plainly: dynamic light scattering; purified full-length ThHSF1 alone, ThHspA1 alone and the two together (Fig. S10); conditions not given.

For the substance “TTCGAACGCACCGAAACCATCCCGAACTTGGTCGAA (double strand) [lacF promoter probe]”, the dissociation constant Kd in data set [1] is 4.83 µM. As for “TACGCCTTAAACTGACTTACATGCAA (double strand) [lacA mutant probe 1]”, the Kd in data set [1] was found to be 4.59 µM.

“ThHspA1, Hsp70 homolog of Trametes hirsuta AH28-2 (full-length protein)” showed a Ka in data set [2] of 1.16e+07 M⁻¹. Substance “TACGCCTAGAACTGACTTACATGCAA (double strand) [lacA mutant probe 4]” gave a dissociation constant Kd in data set [1] of 5.2 µM. The same measure, in the same setting: under “AGTTCAGTATGTCTTGAAGATTATGCGGTCAGAAAC (double strand) [lacB promoter probe]” stands 5.46 µM. In the case of “TACGCCTTGAACTGACTTACATGCAA (double strand) [lacA promoter probe WT (26 bp)]”, the Kd amounted to 1.03 µM in data set [3], 0.673 µM in data set [4] and 0.961 µM in data set [1]. In data set [1], “TACGCCTTATACTGACTTACATGCAA (double strand) [lacA mutant probe 2]” displayed a dissociation constant (Kd) of 14.7 µM. Turning to “TACGCCAAGAACTGACTTACATGCAA (double strand) [lacA mutant probe 5]”, the dissociation constant Kd in data set [1] turned out to be 11.7 µM.

“ThHspA1, Hsp70 homolog of Trametes hirsuta AH28-2 (full-length protein) (natural protein)” gave a Kd in data set [5] of 0.105 µM. In addition, the stoichiometry N in data set [6] turned out to be 6.

The Kd is the equilibrium constant for the complex coming apart. A higher Kd goes with weaker binding. Broadly, the stoichiometry N is the number of molecules, sites or subunits per partner or assembly.
